Laboratory results from paper PMC10746174.

Target: heme
Experiment: UV-vis spectroscopy, as-purified Soret peak (412 nm)
Details: 50 µg of purified protein, as-purified (black trace); parent: est. 0.32; read off a plot

response [Abs.] | Substance
0.18 | CcmF:6×His wild type (from UniProt P33927) Y231A
0.2 | CcmF:6×His wild type (from UniProt P33927) W229A
